# The nanobody polyreactivity screen of Harvey et al. (2022)
# Experiment: yeast display, Sf9 membrane polyspecificity reagent, FACS + sequencing; frameworks hold sequencing errors
# How it was run: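 Nanobodies came from a synthetic yeast display library in Saccharomyces cerevisiae BJ5465, induced with galactose for 36–48 hours and stained for 1 hour at 4 °C with 10% biotinylated, detergent-solubilized Sf9 membrane reagent. Cells were enriched on streptavidin microbeads and then FACS-sorted, with low and high (top ~1%) gates set on anti-HA fluorescence for expression and streptavidin fluorescence for reagent binding. Each polyreactivity label reflects the gate a clone came from. Genes were amplified by colony PCR, sequenced by MiSeq 2 × 250 and filtered by CDR length.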
row,Sequence,polyreactivity (PSR sort gate)
1,QVQLVESGGGLVQAGGSLRLSCAASGRTFGRNAMGWYRQAPGKERELVAAINSGGSTKYADSVKGRFTISRDNAKNTVYLQMNSLKPEDTSVYYCARRGGFSYYYWGQGTQVTVSS,high polyreactivity
2,QVQLVESGGGLVQAGGSLRLSCAASGSTFYKYAMGWYRQAPGKERELVASISRSGGSTSYADSVKGRFTISRDNAKNTVYLQMNSLKPEDTAVYYCAADRYSSPYYSSPNEYDYWGQGTQVTVSS,high polyreactivity
3,QVQLVESGGGLVQAGGSLRLSCAASGSTFGKYAMGWYRQAPGKEREFVAGISWSADSTYYADSVKGRFTISRDNAKNTVYLQMNSLKPEDTAFYYCATDGSSDEFRPEYDYWGQGTQVTVSS,low polyreactivity
4,QVQLVESGAGLVQARGSLRLTCAASGGTFLSYAKGWYRQAPGKERELVAGISSGGSTNYADSVKGRFTISRDNAKNTVYLQMNSLKPEDTAVYYCAADSFPSEFDYWGQGTQVTVSS,low polyreactivity
5,QVQLVESGGGLVQAGGSLRLSCSASGITFGANTMGWYRQAPGKERELVAAITISGGITHYADSVKGRFTISRDHAKNTVYLQMNSLKPEDTAVYYCAAGAYWRLYPYRQRNGGRMYYWGQGTQVTVSS,low polyreactivity
6,QVQLVESGGGLVQAGGSLRLSCAASGRTFTVYAMGWYRQAPGKERELVAAINYSGGRTYYADSVKGRFTISRDNAKNTVYLQMNSLKPEDTAVYYCAAYVYQSSPRYSRYGGYDYWGQGTQVTVSS,low polyreactivity
7,QVQLVESGGGLVQAGGSLRLSCAPSGRTFPYYAIGSYRQAPGKERELVARITGSGTSTYYADSVKGRFTISRDNAKNTVYLQMNSLKPEDTAVYYCAAPKYGSYYIADYEYWGQGTQVTVSS,low polyreactivity
8,QVQLVESGGGLVQAGGSLRLSCAASGRIFTTNAMGWYRQAPGKERELVAAITSGASTKYADSVKGRFTISRDNAKNTVYLQMNCLKPEDTAVYYCNAKRGVNLRSNWYSHLRMDHWGQGTQVTVSS,low polyreactivity
9,QVQLVESGGGLVQAGGSLRLSCAASGNIFPAYVMGWYRQAPGKERELVAAITDSDGSTFYADSVKGRFTISRDNAKNTVYLQMNSLKPEDTAVYYCAAYSYRQGWGFGYWGQGTQVTVSS,low polyreactivity
10,QVQLVESGGGLVQAGGSLRLSCAASGFTFPYNAMGWYRQAPGKERELVAAISWSGGSTYYADSVKGRFTISRDNAKNTVYLQMNSLKPEDTAVYYCAASYWRIPMEYWGQVTQVTVSS,high polyreactivity
11,QVQLVESGGGLVQAGGSLRLSCAASGSIFRGNAMGWSRQAPAKERELVAAISKSGGSTYYADSVKGRFTISRDNAKNTVYLQMNSLKPEDTAVYYCAARTTYLYGMYYWGQGTQVTVSS,low polyreactivity
12,QVQLVESGGGLDQAGGSLRLSSAASGFTFVYYAMGWYRQAPGKERELVAAISWSGGTTYYADSVKGRFTISRDNAKNTVYLQMNSLKPEDTAVYYCNVYPAYIYFDYDYWGQGTQVTVSS,high polyreactivity
13,QVQLVESGGGLVQAGGSLRLSCAASGSTFGWNAMGWYRPAPGKERELVAAISSSGGSTNYADSVKGRFTISRDNAKNTVYLQMNSLKPEDTAVYYCAARYRTLTKYYWGQGTQVTVSS,low polyreactivity
14,QVQLVESGGGLVQAGGSLRLSCAASGSIYASNTMGWYRQAPGKERELVAGITKIGSSTYYADSVKGRFTISRDNAKNTVYLQMNSLKPEDTAVYYCNAYGPNIYSSRYDYWGQGTQVTVSS,low polyreactivity
15,QVQLEESGGGLVQAGGSLRLSCAASGRTFDYYAMGWYRQAPGKERELVAAIRLISGNTYYADSVKGRFTISRDNAKNTVYLQMNSLKPEDTAVYYCAAPSDGVPSLYGGMDYWGQGTQVTVSS,low polyreactivity
16,QVQLVESGGGLVQAGGSLRLSCAASGRISRVYAMGWYRQAPGKERELVASITGRGGSTYYADSVKGRFTISRDNAKNTVYLQMNSLKPEDTAVYYCAALIDVITGQYDYWGQGTQVTVSS,high polyreactivity
17,QVQLVESGGGLVQAGGSLRLSCAASGNTFPVYAMGWYRQASGKERELVATITSGGSTNYADSVKGRFTISRDNAKNTVYLQMNSLKPEDTAVYYCARRAVYSKRRYDYWGQVTQVTVSS,low polyreactivity
18,QVQLVESGGGLVQAGGSLRLSCAASGITFQDYAMGWYRQAPGKERELVAAISKSGGSTYYADSVKGRFTISRDNAKNTVYLQINSLKPEDTAVYYCATRYLYSNRAYDYWGQGKQVTVSS,high polyreactivity
19,QVQLVESGGGLVQAGGSLRLSCAASGSTFNSYAMGWYRQAPGKERELVAAISWSGGSTYYADSVKGRFTISRDNAKNTVYLQMNSLKPEDTAVYYCNADYWWEYAYGVDYWGQGTQVTVSS,low polyreactivity
20,QDQLVESGGGLVQAGGSLRLSCAASGSTLDGNAMGWYRQAPGKERELVAGIDTGGSTYYADSVKGRFTISRDNAKNTVYLQMNSLKPEDTAVYYCAATDREDYDYWGQGTQVTVSS,low polyreactivity
21,QVQLVKSGGGLVQAGGSLRLSCAASGSTFYNAMGWYRQAPGKEREWVAAISIGGSTYYADSVKGRFTISRYNAKNTVYLQMNSLKPEDTAVYYCNADLYYWLRYYDRNDYWGQGTQVTVSS,low polyreactivity
22,QVQLVESGRGLVQAGGSLRLRCAASGSIFKSNVMGWYRPAPGKERELVAVITRSGGSTYYADSEKGRFTISRDNAKNTVYLQMNSLKPEDTAVYYCNRAAGYWAGYYHWGQGTQVTVSS,high polyreactivity

row,Sequence,polyreactivity (PSR sort gate)
1,QVQLVESGGGLVQAGGSLRLSCAASGSIFWPNTMGWYRQAPGKERELVAGISFGGGSTYYADSVKGRFTISRDNAKNTVYLQMNSLKPEDTEVYYCNAPGPVISRRTDSYWYGWYDYWGQGTQVTVSS,low polyreactivity
2,QVQLVESGGGLVQAGGSLRLSCAASGSTFGSYAMGWYRQAPGKERELVAAITASGGSTYYADSVKGRFTISRDNAKNTVYLQMNSLKPEDTAVYYCAADTTYIPLSIEYDYWGQGTQVTVSS,low polyreactivity
3,QVQLVESGGGLVQAGGSLRLSCAASGSIFYYNTMGWYRQAPGKERELVAAISWSGGSTSYADSVKWRFTISRDNAKNTVYLQMNSLKPEDTAVYYCNVDYGVHVPPRDYWGQGTQVTVSS,low polyreactivity
4,QVQLVESGGGLVQAGGSLRLSCAASGSTFQANAMAWYRPAPGKERELVAAISSRGGITYYADSVKARFTISRDNAKNTVYLQMNSLKPEDTAVYYCNALPRSTYRQGLGVRLYYWGQGTQVTVSS,high polyreactivity
5,QVQLVESGGGLVQAGGSLRLSCAASVLIIGYNSMGWYRQAPGTERELVASIRYSGGTTYYADSVKGRFTISRDNEKNTVNLQMNSVKPEDTAVYFCATRVTYRRRFDYWGQGTQVTVSS,high polyreactivity
6,QVQLVESGGGLVQAGGSLRLSSAASGRTFAGYTMGWYRQAPGKERELVAAITKSGGSTYYADSVKGRFTISRDNAKNTVYLQMNSLKPEDTAFYYCAARYIPSRYGTGGGYYSWGQGTQVTVSS,high polyreactivity
7,QVQLVESGGGLVQAGGSLRLSCAASGRIFGQYAMGWYRQAPGKERELVAAISWRGGTTYYADSVKGRFTISRDNAKNTVYLKMNSLKPVDTAVYYCNADVWVYPYDYWGQGTQVTVSS,low polyreactivity
8,QVQLVESGGGLVQAGGSHRLSCAASGRIFYRYVMGWYRQAPGKERELVAAISRGGGTNYADSVKGRFTISRDNAKNTVYLQMNSLKPEDTAVYYCAARGSPGAGYYWGQGTQVTVSS,high polyreactivity
9,HVQLVESGGGLVQAGGSLRLSCAASGSIFWRYAMGWYRQAPGKERELVAAITWSGGTSYADSVKGRFTISRDNAKNTVYLQMNSLKPEDTAVYYCNADGLSYYLYDYWGQGTQVTVSS,low polyreactivity
10,QVQLVESGGGLVQAGGSLRKSCAASGRTFGYNTMGWYRQAPGKERELVAAITWSGGRTYYADSVKGRFTISRDNAKNTVYLQMNSLKPEDTAVYYCIAVIGREFDYWGQGTQVTVSS,high polyreactivity
11,QVQVVESGGGLLQAGGSLRLSCAASGSTFGWYAMGWYRQAPWKERELVAANTGDSASTYYADSVKGRFTISRDNAKNTVYLQMNSLKPEDTAVYYCAASKFSDFGYQAVIGYGYWGQGTQVTVSS,low polyreactivity
12,QVQLVESGGGLVQAGGSLRLSCAASGSIFERYDMGWYRQAPGKERELVAAITSAGITYYADSVKGRFTISRDNAKNTVYLQMNSLKPEDTAVYYCAASYYYGYDYWGQGTQVTVSS,low polyreactivity
13,QVQLVESGGGLVQAGGSLRLICAASGGTFSHNDMGWYRQAPGKEMELVASINSGGSTNYADSVKGRFTISRDNAKNTVYLQMNSLKPEDSAVYYCAADVEGWTVESDVYRVGYDYWGHGTQVTVSS,low polyreactivity
14,QVQLVESGGGLVQAGGSLRLSCAASGSTFSSLIMGWYRQAPGKERELVAAISRSGGRTYYADSVKGRFTISRDNAKNTVYLQMNSLKPEDTAVYYCAAPWFRDTRGYSLYDYWGQGTQVTVSS,high polyreactivity
15,QVQLVESGGGLDQAGGSLRLSCAASARTFTYYAMGWYRQAPGKERELVAAIRWTGDSTYYADSVKGRFTISRDYAKNTVYLQMNSLKPEDTAVYYCAKQARWQYDGGIRWYYYWGQGTQVTVSS,high polyreactivity
16,QVQLVESGGGLVQAGGSLRLSCAASGFTFKYYAMGWYRPAPRKERELVADITRSGGSTYYADSVKGRFTISRDNAKNTVYLQMNSLKPEDTAGYYCAVDPVRYPYSYDYWGQGTQVTGSS,high polyreactivity
17,QVQLVESGGGLVQAGGSLRLSCAASGFTFGTNAMGWDRQAPGKERELVAAISGSGGSTYYADSVKGRFTISRDNAMNTVYLQMNSLKPEDTAVYYCNKGRPRKVYSEGFGYWGQGTQVTVSS,high polyreactivity
18,QVQLVESGGGLVQAGGSLRLSCAASGSILEIYAMGWYRQAPGKEREFVASISWDVSSTYYADSVKGRFTISRDNAKNTVYLQMNSLKPEDTAVYYCATSLVWGLYDWYYDLSAAFDYWGQGTQVTVSS,low polyreactivity
19,QVQLVESGGGLVQAGGSLRLSCAASGFTFPSNAMGWYRQAPGKERELVAAISSTDSTNYADSVKGRFTISRDNAKNTVYLQMNSLKPEDTAVYYCNADRDDDYDYWGQGTQVTVSS,low polyreactivity
20,QVQLVESGGGLVQAGGSLRLSCAASGRTFAPNAMGWYRQAPGKERELVAAISWSGTSTYYADSVKGRFTISRDNAKNTVYLQMNSLKPEDTAVYYCAPDLEGRVGSPWTYDYWGQGTQVTVSS,low polyreactivity
21,QVQLVESGGGLVQAGGSLRLSCGASGRIFRYYAMGWYRQAPGTDREVVAAITQRGGSTYADSVKGRFTISRDNAKKTVYLQMNSLKPEDTADYSCPYRGSFLYDYWGQGTQVTVSS,low polyreactivity
